Laboratory results taken from the Immune Epitope Database (IEDB).

Experiments:
Test in all cases: IEDB peptide-MHC binding, purified MHC/competitive/radioactivity; filed as Kd, often an IC50 or EC50 that approximates it; ≥ and ≤ were set here for values at or beyond the usual limits of such assays
HLA-A*02:06 = biological target: HLA-A*02:06
HLA-A*02:02 = biological target: HLA-A*02:02
HLA-A*02:03 = biological target: HLA-A*02:03
HLA-A*31:01 = biological target: HLA-A*31:01
HLA-A*33:01 = biological target: HLA-A*33:01
HLA-A*68:01 = biological target: HLA-A*68:01
HLA-A*11:01 = biological target: HLA-A*11:01
HLA-A*03:01 = biological target: HLA-A*03:01
[1] = source organism: Vaccinia virus WR
[2] = source organism: SARS coronavirus Tor2
[3] = source organism: Mammarenavirus juninense
[4] = source organism: Dengue virus 1 Brazil/97-11/1997
[5] = source organism: Vaccinia virus Copenhagen
[6] = source organism: Lymphocytic choriomeningitis virus (strain Armstrong)
[7] = source organism: Mammarenavirus brazilense

Row | Sequence | Kd (HLA-A*02:06; [1]) [nM] | Kd (HLA-A*02:02; [1]) [nM] | Kd (HLA-A*02:03; [1]) [nM] | also measured
1 | GMSIVCIVA | 4510 | 190 | 656 | 
2 | ELKHGLLDSI | 1340 | 540 | 54.8 | 
3 | FLFWFLKSGA | 22.8 | 1.07 | 0.584 | 
4 | AVLSEYETMV | 23.6 | 0.758 | 1.47 | 
5 | RTRCKYVGCT | 11600 | 149 | 12300 | 
6 | FLFLAWIML |  |  |  | Kd (HLA-A*02:06; [2]): 36.7 nM; Kd (HLA-A*02:02; [2]): 1.81 nM; Kd (HLA-A*02:03; [2]): 37.7 nM
7 | SLALKNSQA | 19000 | 662 | 459 | 
8 | NMINKLYGYA | 137 | 1.57 | 0.438 | 
9 | FISIYSRPKI | 396 | 22.8 | 102 | 
10 | YCNYTKFWYV |  |  |  | Kd (HLA-A*02:06; [3]): 6.54 nM; Kd (HLA-A*02:02; [3]): 322 nM; Kd (HLA-A*02:03; [3]): 101 nM
11 | PVIVPDIKL | ≥ 51200 | ≥ 41200 | ≥ 32700 | 
12 | FVSTMPVET | 1540 | 1220 | 391 | 
13 | TIGLSLVASV |  |  |  | Kd (HLA-A*02:03; [4]): 12.8 nM
14 | SIDHCSSFI | 199 | 631 | 12.9 | 
15 | GIFVDTMSI | 1620 | 2880 | 936 | 
16 | LAEYIRHRNT | ≥ 69800 | ≥ 36100 | 14000 | 
17 | VLQQNNSFI | 8680 | 100 | 249 | 
18 | YQSFLFWFL | 40.1 | 0.381 | 2.5 | 
19 | IIGEPIIVA | 1350 | 2320 | 4780 | 
20 | ILHNIYRLFT | 1210 | 125 | 10.7 | 
21 | TIEDDKIVTM | ≥ 26100 | 17000 | 17200 | 
22 | KLYIALCKV |  |  |  | Kd (HLA-A*02:06; [5]): 97 nM; Kd (HLA-A*02:02; [5]): 15.6 nM; Kd (HLA-A*02:03; [5]): 1.41 nM
23 | LTDVEKRIL | ≥ 77100 | ≥ 27400 | ≥ 28500 | 
24 | VLFSGVSWT |  |  |  | Kd (HLA-A*02:03; [4]): 60.1 nM
25 | IILFQNNDI | 12000 | 11300 | ≥ 52300 | 
26 | RVKQWVMDT | 13500 | 3630 | 3.61 | 

Row | Sequence | Kd (HLA-A*02:06; [1]) [nM] | Kd (HLA-A*02:02; [1]) [nM] | Kd (HLA-A*02:03; [1]) [nM] | also measured
27 | PIPMSRLFM | ≥ 31200 | 3890 | 9130 | 
28 | VVVGDIIGV |  |  |  | Kd (HLA-A*02:06; source organism: Dengue virus 3 Martinique/1243/1999): 4.38 nM
29 | CLEAKTHFST | ≥ 69800 | 12400 | 11100 | 
30 | TIDNIVTSL | 2730 | 178 | 1040 | 
31 | YSMCTGKFKV |  |  |  | Kd (HLA-A*02:06; source organism: Dengue virus 2 16681-PDK53): 54.4 nM
32 | YCNYSKFWYL |  |  |  | Kd (HLA-A*02:06; [6]): 1060 nM; Kd (HLA-A*02:02; [6]): 1110 nM; Kd (HLA-A*02:03; [6]): 9630 nM
33 | IIDLLLPST | 1120 | 15100 | 10300 | 
34 | STVDVRNIVT | 1570 | 3060 | 11600 | 
35 | LSNCVHPAV |  |  |  | Kd (HLA-A*02:06; [7]): 461 nM; Kd (HLA-A*02:02; [7]): 427 nM; Kd (HLA-A*02:03; [7]): 1100 nM
36 | DILQMREIIT | 17700 | ≥ 45500 | ≥ 56200 | 
37 | LNMFVSDQV |  |  |  | Kd (HLA-A*02:06; [6]): 4810 nM; Kd (HLA-A*02:02; [6]): 17.6 nM; Kd (HLA-A*02:03; [6]): 879 nM
38 | GLFKTLTGEI |  |  |  | Kd (HLA-A*02:03; source organism: Dengue virus 4 Philippines/H241/1956): 15 nM
39 | SVDAMIHKT | 10600 | 5020 | 3660 | 
40 | SMSQELAELL | 474 | 6.19 | 54.5 | 
41 | DIDLLFNEKL | ≥ 25700 | 11200 | ≥ 26700 | 
42 | YLLGLSAIM |  |  |  | Kd (HLA-A*02:06; [2]): 3.22 nM; Kd (HLA-A*02:02; [2]): 1.69 nM; Kd (HLA-A*02:03; [2]): 37.1 nM
43 | IVNTTYDFL | 2990 | 1880 | 4680 | 
44 | MVDVSMMSM | 101 | 559 | 1160 | 
45 | NVTLFYCDER |  |  |  | Kd (HLA-A*31:01; [1]): 777 nM; Kd (HLA-A*33:01; [1]): 818 nM; Kd (HLA-A*68:01; [1]): 8.23 nM; Kd (HLA-A*11:01; [1]): 2830 nM; Kd (HLA-A*03:01; [1]): 6080 nM
46 | FQSHQLWAT |  |  |  | Kd (HLA-A*02:06; source organism: Dengue virus 1 Singapore/S275/1990): 25.6 nM
47 | DTSYYVKEY |  |  |  | Kd (HLA-A*31:01; [1]): ≥ 77900 nM; Kd (HLA-A*33:01; [1]): ≥ 77700 nM; Kd (HLA-A*68:01; [1]): 69.1 nM; Kd (HLA-A*11:01; [1]): 14300 nM; Kd (HLA-A*03:01; [1]): ≥ 78000 nM
48 | IVAAVIIMA | 3570 | 10400 | 2660 | 
49 | FAYVMNIER |  |  |  | Kd (HLA-A*31:01; [1]): 37.2 nM; Kd (HLA-A*33:01; [1]): 12.5 nM; Kd (HLA-A*68:01; [1]): 0.38 nM; Kd (HLA-A*11:01; [1]): 65.5 nM; Kd (HLA-A*03:01; [1]): 4340 nM
50 | LMWNKQFIK |  |  |  | Kd (HLA-A*31:01; [1]): 12.9 nM; Kd (HLA-A*33:01; [1]): 31.8 nM; Kd (HLA-A*68:01; [1]): 200 nM; Kd (HLA-A*11:01; [1]): 2.57 nM; Kd (HLA-A*03:01; [1]): 6.26 nM
51 | EIARIENEM | ≥ 77100 | 335 | ≥ 47900 | 
52 | SKFWYLEHAK |  |  |  | Kd (HLA-A*31:01; [6]): 1010 nM; Kd (HLA-A*33:01; [6]): 879 nM; Kd (HLA-A*68:01; [6]): ≥ 30600 nM; Kd (HLA-A*11:01; [6]): 5190 nM; Kd (HLA-A*03:01; [6]): 18800 nM
